Experiment [1] has as its system CMT-93 murine intestinal epithelial cells. Briefly: HRF secretion into culture supernatant, western blot, CMT-93. The format is cell-based, mouse. As to conditions: stimulated overnight, 20 or 100 ng/ml. As for the experimental part:
(§1) FIGS. 4A-4C show HRF is secreted by various cells. CMT-93 murine intestinal epithelial cells (FIG. 4A) and NIH/3T3 murine fibroblasts (FIG. 4B) and Raw264.7 murine macrophages (FIG. 4C) were stimulated overnight with low (20 ng/ml) and high (100 ng/mL) concentrations of various cytokines. HRF secreted into culture supernatants was detected by western blotting. Med and US denote medium only and supernatant from unstimulated cells, respectively. −DTT and +DTT indicate SDS gels were run under non-reducing and reducing conditions, respectively. Gel portions of containing the 23 kDa HRF monomer are shown except that a larger portion of the non-reducing gel is shown in panel C. Arrow indicates the position of HRF dimer, which disappeared under reducing conditions.
(§2) The following cell lines were cultured in DMEM plus 10% FCS except for U-937 cells which were cultured in RPMI1640 plus 10% FCS: CMT-93 mouse and Caco-2 (with 20% FCS) human intestinal epithelial cell lines; NIH/3T3 mouse fibroblast line; Raw 264.7 mouse and U-937 human macrophage lines; BEAS-2B human bronchial epithelial cell line; 293T human embryonic kidney cell line (obtained from ATCC, Manassas, Va., except for NIH/3T3, which was provided by S. A. Aaronson, NIH). Fibroblast-like stromal cells were cultured from small intestines of BALB/c mice in DMEM/10% FBS. CD4^+ T and B cells were purified from mouse spleens using BD IMag™ Mouse CD4 and B cells enrichment set-DM. Low-density bone-marrow cells were cultured in the presence of 100 ng/ml of stem cell factor (PeproTech) and 100 ng/ml of FLT-3 ligand (R&D Systems) for 4 days, and with 10 ng/mL of IL-5 (R&D Systems) thereafter for 10 days to obtain bone marrow-derived eosinophils (44). Bone marrow cells were cultured in the presence of 20 ng/ml of GM-CSF for 6 days and adherent cells were collected as bone marrow-derived macrophages. Non-adherent cells were further cultured with 5 ng/ml GM-CSF and the non-adherent cells were collected as bone marrow-derived dendritic cells. […]
On the technique in general: Immunoblotting shows a protein as a band on a membrane.

The test system of experiment [2] is NIH/3T3 murine fibroblasts and primary intestinal fibroblasts. Briefly: HRF secretion into culture supernatant, western blot, fibroblasts. The format is cell-based, mouse. As to conditions: stimulated overnight, 20 or 100 ng/ml. Here is the method: as §1
The following cell lines were cultured in DMEM plus 10% FCS except for U-937 cells which were cultured in RPMI1640 plus 10% FCS: CMT-93 mouse and Caco-2 (with 20% FCS) human intestinal epithelial cell lines; NIH/3T3 mouse fibroblast line; Raw 264.7 mouse and U-937 human macrophage lines; BEAS-2B human bronchial epithelial cell line; 293T human embryonic kidney cell line (obtained from ATCC, Manassas, Va., except for NIH/3T3, which was provided by S. A. Aaronson, NIH). Fibroblast-like stromal cells were cultured from small intestines of BALB/c mice in DMEM/10% FBS. […]

Experiment [3] concerns BEAS-2B human bronchial epithelial cells. Briefly: HRF secretion, western blot, BEAS-2B. Conditions: combination of HDM and cytokine, 24 h. Format: cell-based. The source says: As lung epithelial cells are exposed to the environment, HRF secretion was studied using BEAS-2B human bronchial epithelial cells. A small amount of HRF was secreted constitutively, but house dust mite allergens induced the secretion of high-molecular-weight HRF species (HMW-HRFs). Various cytokines including epithelial derived cytokines as well as Th2 cytokines and proinflammatory cytokines further enhanced HDM-induced secretion of HMW-HRFs.
Cultured cells were scraped and treated with adenosine and ATP, which should be abundantly present in inflammatory or injured tissues. These conditions induced secretion of HRF monomer, dimer and HMW-HRFs like stimulation with HDM plus cytokines.
Culture supernatants were analyzed by SDS-PAGE under nonreducing (−DTT) and reducing (+DTT) conditions, followed by western blotting for HRF probing. HDM-induced HRF secretion was enhanced not only by Th2 cytokines (IL-4, IL-5, and IL-13), but also by epithelial derived cytokines (IL-25, IL-33, and TSLP) and proinflammatory cytokines (IL-1beta, IL-6 and TNF). med, medium alone; US, unstimulated; HDM, house dust mite; CR, cockroach; RW, ragweed; Af, Aspergillus fumigatus. Arrowhead, HRF monomer.

In experiment [4] the test system is Raw264.7 murine macrophages. Description: HRF secretion into culture supernatant, western blot, macrophages. Format: cell-based, mouse. As to conditions: stimulated overnight, 20 or 100 ng/ml. Here is the method:
as §1, §2

For experiment [5], the system named is c-Kit+ mucosal mast cells of the small intestine. Description: Ex vivo mast cell activation test (MCAT). The format is cell-based, mouse. As to conditions: 15 min at 37° C. As for the experimental part:
FIGS. 2A-2C show mucosal mast cells can be activated ex vivo by antigen. Cells were released with EDTA from small intestines of non-sensitized/OVA challenged (Cont) or OVA-sensitized/OVA-challenged (OVA) mice, and mononuclear cells were selected. The cells were incubated for 15 min at 37° C. with OVA or anti-IgE antibody, and activation of Kit^+ mast cells was measured by flow cytometry (FIG. 2A, FIG. 2B). **, ***: p<0.01, p<0.001 by Student's t-test. (n=2; a representative of 2 independent experiments) (FIG. 2C) Mucosal cells derived from OVA-sensitized/OVA-challenged mice were stimulated with PBS (n=4), OVA (10 ng/ml, n=4) or HRF dimer (100 μg/ml, n=2) in the presence or absence of HRF-2CA (300 μg/ml).
FIGS. 11A-11C show HRF dimer, but not monomer can activate mast cells. (FIG. 11A) Purified dimeric and monomeric HRF expressed in E. coli. Recombinant HRF-[…] was purified first by Histrap HP and then Sephacryl S-200 HR16/60. Two peaks were observed by Sephacryl size fractionation. The first (Fr1) and second (Fr3) peaks contained dimer and monomer, respectively, as shown by SDS-PAGE. Fr1 and Fr3 were used for mast cell stimulation. (FIG. 11B) Cells were released with 10 mM EDTA from small intestines of OVA-sensitized/OVA-challenged mice, and mononuclear cells were selected. The cells were incubated for 15 min at 37° C. with mHRF monomer or dimer (100 μg/ml), or PBS, and Kit^+ mast cell activation (LAMP-1^+) was measured by flow cytometry (n=3). (FIG. 11C) Control experiments indicate an excellent specificity of the assay for HRF multimers. HRF-2CA (2CA) was used as a monomer control (n=2 for each concentration). Note that total concentrations of the 1:9 mixture of dimer:monomer gave almost the same luminescence values as did ten-fold less concentrations of dimer.
Twenty-four hours after the last OVA challenge, mice were sacrificed and small intestines (0.5-15 cm from stomach) were collected. The intestinal tissues were opened longitudinally and washed with PBS. Then, the tissues were incubated with 10 mM EDTA-PBS for 30 min at 37° C. After incubation, the tissues were transferred to 30 ml PBS in 50 ml tubes and vigorously shaken. After washed, the cells were resuspended in 40% Percoll solution and slowly loaded on the top of 75% Percoll solution. The cells were then centrifuged (2000 rpm, 20 min) and lymphocytes were collected. The cells were once centrifuged and resuspended in Tyrode's buffer. Abs (Biotin-anti-CD4 mAb (clone RM4-5), Biotin-anti-CD8 mAb (clone 53-6.7), Biotin-anti-B220 mAb (clone RA3-6B2), Biotin-anti-CD326 mAb (clone G8.8), PE-anti-CD117 (clone 2B8), AlexaFluor647-anti-LAMP-1 mAb (clone 1D4B)) (Biolegend) were added and cells were then stimulated with OVA, anti-IgE (clone RME-1, BioLegend) and recombinant dimeric murine HRF for 15 min at 37° C. After activation, cells were washed and incubated with FITC-streptavidin (Catalog #405202, Biolegend) for 30 min at 4° C. LAMP-1 expression was detected using FACS Calibur. Data were analyzed using FlowJo software.

The subject of experiment [6] is OVA-induced allergic diarrhea. Description: OIT desensitization model, hourly increasing amounts of OVA for 3 days. The format is in vivo, mouse. As for the experimental part: (§3) In a classical tolerance model, five daily oral administrations of 1 mg OVA from day −11 to day −7 were performed before i.p. OVA/alum-sensitization on days 0 and 7 and followed by ig. OVA (30 mg) gavages on days 14, 21, 28 and 35. In another OIT model, mice were i.d. sensitized with OVA (750 μg) on days 0, 13 and 27 and followed by 9 oral OVA (60 mg) challenges from day 44 to day 60 to induce diarrhea in all mice. Then mice were i.g. treated with hourly increasing amounts of OVA on day 100 (0.1, 0.2, 0.5 mg), on day 101 (1, 2, 5 mg) and on day 102 (10, 20, 60 mg).
Finally, HRF-reactive IgE and HRF-reactive IgG were monitored in another desensitization model, which mimicked the human OIT more faithfully. OVA-sensitized mice were first rendered allergic by OVA challenges and then received hourly increasing amounts of OVA for 3 consecutive days (OIT) after a resting period (FIG. 7D). […] Levels of HRF-reactive IgG and OVA-specific IgG were not changed by OIT (FIG. 7E). In non-sensitized mice, HRF-reactive IgE and HRF-reactive IgG levels were not changed by OIT and OVA-specific IgE and IgG levels were extremely low irrespective of OIT treatment (data not shown).

The subject of experiment [7] is OVA-induced allergic diarrhea. Description: Classical tolerance model, oral OVA before sensitization. The format is in vivo, mouse. As for the experimental part:
as §3
Applicant then tested the possibility provoked by the above human data that the level of HRF-reactive IgE is kept low in a desensitized state, using two murine models. In a classic tolerance model (30), five daily oral administrations of 1 mg OVA from day −11 to day −7 (OIT) prevented the OVA-induced development of allergic diarrhea in OVA-sensitized mice (FIG. 7B). By contrast, without oral pretreatment, all OVA-sensitized mice developed allergic diarrhea.

Experiment [8] concerns mouse bone marrow-derived mast cells (BMMCs). Briefly: IL-13 production of IgE-sensitized BMMCs stimulated with TNP3-BSA and mHRF dimer. The format is cell-based. Conditions: IL-13 ELISA. Here is the method: (§4) FIGS. 33A-33B show HRF dimers enhance IgE/antigen-induced activation of mast cells and basophils. […] IL-13 in culture supernatants was quantified by ELISA. […] Then, HDM allergen (Dermatophagoides farinae at 10 ng/ml) was added to the cells together with FITC-anti-CD63 and APC-anti-CCR3 for 15 min. Expression of CD63 (activation marker) and CCR3 (basophil marker) was analyzed by flow cytometry.

For a further experiment, the system named is basophils. Description: Basophil activation (CD63) in blood of an HDM-sensitized asthmatic. The format is cell-based, human. As to conditions: 10 μg/ml, 30 min, then HDM allergen 10 ng/ml for 15 min. As for the experimental part: as §4
Setting [9] is: cells from allergic (OVA-sensitized/OVA-challenged) mice.

On to IL-1β, for which the HRF secretion result in experiment [1] was “strongly induced”; in experiment [2], “enhanced”. In addition, the “HDM-induced HRF secretion” value in experiment [3] is given as “enhanced”. For the same molecule, the “secretion of HRF monomer” value in experiment [4] is “increased”.

B1: OVA: food allergen of the murine model, also given orally as OIT (protein, UniProt P01012 2-386, looked up)
Ovalbumin: GSIGAASMEFCFDVFKELKVHHANENIFYCPIAIMSALAMVYLGAKDSTRTQINKVVRFDKLPGFGDSIEAQCGTSVNVHSSLRDILNQITKPNDVYSFSLASRLYAEERYPILPEYLQCVKELYRGGLEPINFQTAADQARELINSWVESQTNGIIRNVLQPSSVDSQTAMVLVNAIVFKGLWEKAFKDEDTQAMPFRVTEQESKPVQMMYQIGLFRVASMASEKMKILELPFASGTMSMLVLLPDEVSGLEQLESIINFEKLTEWTSSNVMEERKIKVYLPRMKMEEKYNLTSVLMAMGITDVFSSSANLSGISSAESLKISQAVHAAHAEINEAGREVVGSAEAGVDAASVSEEFRADHPFLFCIKHIATNAVLFFGRCVSP
Take B1: in [5] (setting [9]), the “activation (LAMP-1+) of mucosal mast cells by the substance” value (“activation (LAMP-1+)” for short) is “further activated”. The “activation (LAMP-1+)” value in [5] (cells from non-sensitized mice) is reported as “few mast cells were activated”. In addition, in experiment [6] (before vs after OIT), the “levels of HRF-reactive IgE” value is “lowered”; the “levels of HRF-reactive IgG and OVA-specific IgG” value is “not changed”; the “levels of OVA-specific IgE” value is given as “did not change”. For the same molecule, the “OVA-sensitized/OVA-challenged mice desensitized to the final gavage dose of 60 mg” value in [6] (hourly increasing amounts for 3 consecutive days) was 80%. In addition, the “OVA-induced development of allergic diarrhea” value in experiment [7] (five daily oral administrations of 1 mg from day -11 to day -7) is “prevented”. Besides, the “HRF-reactive IgE levels” value in [7] (tolerance-induced vs non-tolerant and non-sensitized mice) is “significantly reduced”.

B2: HRF dimer: recombinant disulfide-linked dimer of mouse histamine releasing factor (protein, UniProt P63028 1-172, looked up)
Translationally-controlled …: MIIYRDLISHDELFSDIYKIREIADGLCLEVEGKMVSRTEGAIDDSLIGGNASAEGPEGEGTESTVVTGVDIVMNHHLQETSFTKEAYKKYIKDYMKSLKGKLEEQKPERVKPFMTGAAEQIKHILANFNNYQFFIGENMNPDGMVALLDYREDGVTPFMIFFKDGLEMEKC
modifications: disulfide-linked dimer
notes: recombinant disulfide-linked dimer of mouse histamine releasing factor
Take B2: in experiment [8], the “IgE/antigen-induced activation of mast cells” value is given as “enhance”. The “activation (LAMP-1+)” value in experiment [5] (setting [9]) was “can activate”; in experiment [5] (cells from allergic (OVA-sensitized/OVA-challenged) mice, listed as dimeric HRF), “activated”.

B3: hHRF dimer: human HRF dimer (protein)
chain: MIIYRDLISHDEMFSDIYKIREIADGLCLEVEGKMVSRTEGNIDDSLIGGNASAEGPEGEGTESTVITGVDIVMNHHLQETSFTKEAYKKYIKDYMKSIKGKLEEQRPERVKPFMTGAAEQIKHILANFKNYQFFIGENMNPDGMVALLDYREDGVTPYMIFFKDGLEMEKC
For the molecule B3, in the experiment with basophils, the “IgE/antigen-induced activation of basophils (CD63)” value is listed as “enhance”.

These data come from patent US20220241369A1, “COMPOSITIONS AND METHODS OF MODULATING INFLAMMATION” (La Jolla Institute for Allergy and Immunology, priority 2018, published 2022).
